This data set is described as follows: soluble on expression in E. coli; label from the status in PepcDB or PDB records.
“GHHHHHHEAIAKRLDACQDQLLELYEENSIDIHKHIMHWKCIRLESVLLHKAKQMGLSHIGLQVVPPLTVSETKGHNAIEMQMHLESLAKTQYGVEPWTLQDTSYEMWLTPPKRCFKKQGNTVEVKFDGCEDNVMEYVVWTHIYLQDNDSWVKVTSSVDAKGIYYTCGQFKTYYVNFNKEAQKYGSTNHWEVCYGSTVICSPASVSSKKKK”: the “soluble on expression in E. coli” value was “soluble”. In the case of “GHHHHHHHHHHSSGHIEGRHMKRMIALDGAQGEGGGQILRSALSLSMITGQPFTITSIRAGRAKPGLLRQHLTAVKAATEICGATVEGAELGSQRLLFRPGTVRGGDYRFAIGSAGSCTLVLQTVLPALWFADGPSRVEVSGGTDNPSAPPADFIRRVLEPLLAKIGIHQQTTLLRHGFYPAGGGVVATEVSPVASFNTLQLGERGNIVQMRGEVLLAGVPRHVAEREIATLAGSFSLHEQNIHNLPRDQGPGNTVSLEVESENITERFFVVGEKRVSAEVVAAQLVKEVKRYLASTAAVGEYLADQLVLPMALAGAGEFTVAHPSCHLLTNIAVVERFLPVRFSLIETDGVTRVSIE” it was “soluble”; in that of “GHMIMANWQSIDELQDIASDLPRFIHALDELSRRLGLNITPLTADHISLRCHQNATAERWRRGFEQCGELLSENMINGRPICLFKLHEPVQVAHWQFSIVELPWPGEKRYPHEGWEHIEIVLPGDPETLNARALALLSDEGLSLPGISVKTSSPKGEHERLPNPTLAVTDGKTTIKFHPWSIEEIVASEQSA”, “soluble”; in that of “GIDPFTMLHIEFITDLGAKVTVDVESADKLLDVQRQYGRLGWTSGEVPVGGYQFPLENEPDFDWSLIGARKWTNPEGEEMILHRGHAYRRRELEAVDSRKMKLPAAVKYSRGAKNTDPEHVREKADGEFEYVTLAIFRGGKRQERYAVPGSNRPQAGAPARSAATRAQGARPGAVAVQDEETPF”, “soluble”. In the case of “GIPKCPEDWGASSRTSLCFKLYAKGKHEKKTWFESRDFCRALGGDLASINNKEEQQTIWRLITASGSYHKLFWLGLTYGSPSEGFTWSDGSPVSYENWAYGEPNNYQNVEYCGELKGDPTMSWNDINCEHLNNWICQIQKGQTPKPD” it was “soluble”. Under “GIQVRDCMIPRNEMIACELQTDIEVLKTTFIDTGLSKIIIYRQNIDDVVGYIHSSEMFRGQDWQKRINTTVFVPESMYANKLMRLLMQRKKSIAIVIDELGGTAGMVTLEDLVEEIFGDIEDEH” stands “not soluble”; under “GIVATRYRDFSPLLEALTQLLFYVTPIVWTTETLYSQGGAVSERAKLAMLNPLYHYMEVIRAPLIGAPIHP”, “not soluble”; under “GKKQEPFEQVTIDIEEQHQGSVMEALGIRKGEVKDMIPDGKGRTRLEYVIPSRGLIGFRNEFMTMTSGTGLLYSSFSHYDDVKLGEIGQRKNGVLISNATGKALAYALFGLQERGKLMIEHGVDVYEGQI”, “not soluble”.

As for “GKTMKMRKFTIADASLERSPGQEADISVGNLVDERHGGPITIGYGRYAPGQSLTETMAVDDVMIVLEGRLSVSTDGETVTAGPGEIVYMPKGETVTIRSHEEGALTAYVTYPHWRPAHA”, the “soluble on expression in E. coli” value is given as “soluble”.

“GKVLDAIIQEKKSGRIPGIYGRLGDLGAIDEKYDIAISSCCHALDYIVVDSIDTAQECVNFLKKHNIGIATFIGLDKMTVWAKKMSKIQTPENTPRLFDLVKVKNEEIRQAFYFALRDTLVANNLDQATRVAYQRDRRWRVVTLQGQIIEQSGTMSGGLEHHHHHH”: the “soluble on expression in E. coli” value is “soluble”. Under “GLDALFERAVESVAAGLNTEYSKVLEYRPADNKFLLRAGVGWQSGLVGEAAVGAGEESQAGYTLQTEEPVVVEDLRTESRFSGPSLLLDHGVVSGISVIIGTTTEPWGVLGAHTSERRPFTKDDITFVRGVANTLTNAIEREQLEGTLRQAEQRYKTLLENFP” stands “not soluble”; under “GLDTLDRDGDGSTADADCNDFAPTIHPGAAEATLDGVDSNCDGRDSGVAEVVETFKNPGTYSSPVINFKIASPPGPGTPIYGPPRDFSGYNKSYSLAIGKTSYYDPTTGTKWNDDTITPVSDGQDIWRGWTHTGKWSFFNGKAGDKITLSVQRDAQEASLKGAHPGFILFWRPEGGPLFWAGTQDLDEGQTALPADSDTVIGHVIVQHADWTLQGLPPKADHTAPAGVDTELYPMKPDSYTMYYVDSGYDADKYVASKKLIMHPTAFKGLALNDGTAGAFTKSITLPKTGYYMLYVANVLEVDDWSVDADGKLTTTGEVWEVPAKGCWVNITISKP”, “soluble”; under “GLGEKKEGHFSALPSLPVGSHAKVSSPQPRGPRYAEGTFISDYSIAMDKIHQQDFVNWLLAQKGKKNDWKHNITQREARALELASQANRKEEEAVEPQSSPAKNPSDEDLLRDLLIQELLACLLDQTNLCRLRSR”, “soluble”.

On to “GLNMYVAGKATLNYLFERYMDTKYNLRENTKVNYKYMYDNYVRNTIGKRLIADIKYSDIVYFYKSLITEKGLELNTVDTIHTVIHPVFSMAVRDDVIRKNPASGVLADIKKESGKNKGIRHALTIEQQRVFMKYMIEEEQFNHWIPIFTILLGTGCRVGEFIGLRWEDVDFKQKVISINHSIAYVCYGKEDGRKSHYAISLPKTEAGIRYIPMTDEVYDVFKAEYYRQQENGFSQFSIEGMSGFIFTNRCGRIYNQQTLNKGLKRISENYNQKELIDA”, for which the “soluble on expression in E. coli” value is on record as “not soluble”. Under “GLVAHSDLDERAIEALKEFNEDGALAVLQQFKDSDLSHVQNKSAFLCGVMKTYRQREKQGTKVADSSKGPDEAKIKALLERTGYTLDVTTGQRKYGGPPPDSVYSGQQPSVGTEIFVGKIPRDLFEDELVPLFEKAGPIWDLRLMMDPLTGLNRGYAFVTFCTKEAAQEAVKLYNNHEIRSGKHIGVCISVANNRLFVGSIPKSKTKEQILEEFSKVTEGLTDVILYHQPDDKKKNRGFCFLEYEDHKTAAQARRRLMSGKVKVWGNVGTVEWADPIEDPDPEVMAKVKVLFVRNLANTVTEEILEKAFSQFGKLERVKKLKDYAFIHFDERDGAVKAMEEMNGKDLEGENIEIVFAKPPDQKRKERKAQRQAAKNQMYDDYYYYGPPHMPPPTRGRGRGGRGGYGYPPDYYGYEDYYDYYGYDYHNYRGGYEDPYYGYEDFQVGARGRGGRGARGAAPSRGRGAAPPRGRAGYSQRGGPGSARGVRGARGGAQQQRGRGQGKGVEAGPDLLQ” stands “soluble”; under “GMAQRSILVGQIWHEGHSFNPILTREKDFLFLRGEAVLEEARASSTALSGIVKTAEALGYRCVPSISARARPGGAIEQKVFDNIVDEFVQAARMQDFDAICLDLHGATLAEHTLDTEGYLLSRLREVVGNDIMISLALDLHAYLTPQMVEQATIITSFRTTPHADIEETGVRAMTLLDSLSNETRPPRAIYSLIPFLTRGNDETWSGPLAEIGAAADRWRARSDVVDLSIFNVHPFLDVPGYGQVVLAYDNGSGAAIDACRDLSDMLWKARDEFQEQLMSVDKALEIARTSRQLLALGDQGDRVMGAGPGDSPEIARVALEHFPGLKVAVPVYDPQAVRTAREAGENATVRMAVGGAFTHSVAPLERDWTVRKLCRARFTNIGPYMAGTEADFGDAAVLTCDAVTVIVTTMAPNVHDPAFYEAVGVPLASQQAVVARAANHYKLSFADIARTITVDTPGLTAFKPHQFPFTQARPFYPLDIVQWSFAPLECNKVG”, “soluble”; under “GMDGASEIELVFRPHPTLMEKDDSAQTRYIKTSGNATVDHLSKYLAVRLALEELRSKGESNQMNLDTASEKQYTIYIATASGQFTVLNGSFSLELVSEKYWKVNKPMELYYA”, “soluble”. Under “GMDKLVKYQELVKKLLTNYASDDVSDQDVEVQLILDTERNHYQWMNVGWQGLNRIYRCVIHFDIKDGKIWLQQNLTDRNPAEELVMMGVPREDIVLGLQAPYKRQYTDYGVA” stands “soluble”; under “GMEFNHLTKQLNQLLAQDYVAFSITENPVVQMLSQASFAQIAYVMQQYSIFPKELVGFTELARRKALGAGWNGVAQELQENIDEEMGSTTGGISHYTLLADGLEEGLGVAVKNTMPSVATSKLLRTVLSLFDRQVDYVLGATYAIEATSIPELTLIVKLVEWLHEGAIPKDLQYFFSKHLDEWEIEHEAGLRTSVAAYIQPEEFGEFAAGFRAMIDAMQVWWQELAQEAISSEVVLSTAIAQHH”, “soluble”.

Take “GMEQATRTIYSEYAAYPETQGIIAVEKRQPRDSLTDQFDVLLLVITRDPSVEWTVKHYRLNTLRVSLHLVHEQVLSRWLILNANRRAVHWVSEGTIIFERNDYLTDLKKQLRNFPETERCLQMSLSFAKLLRRFQDGRNLFSRGNYYDAYTHVHHALHHLARLSVLEKGAHPEVVVWEQARLDDPDVYKLYEQLLLSEETLEQRIHLALIGLEHLLQSKVLSGGKYLFEVMRERDRPWTMHELMEESRLTELKVDLGSLVDFFIRKGLIRISYQRTKGLGVELVTYEPVV”: the “soluble on expression in E. coli” value is recorded as “soluble”. In the case of “GMFASLVIPVSAQANSGEMPQEQQLAVKYMDALTEHDYKTLITFYNRDSIFFDKTANRKYTGGRFIIDFLERAHQGVLEYDFNIEHMYNAGSLVVMIGNYHFKGPGEQFGKPGKIIDVAIPAVTSLKLDMLNRRVTEHVDLIDYQTMSDQLAMQ” it was “soluble”. In the case of “GMFVWHEYENAAEAAQSLADAVADALQGALDEKGGAVLAVSGGRSPIAFFNALSQKDLDWKNVGITLADERIVPTNHADSNTGLVREYLLKNKAAAAVWIPMVEDGKTETELHPDAVVDYALKHYKQPDVLILGMGNDGHTASIFPKAPQFQTAIDGSAGVALVHTTPVTAPHERISMTLDAIAHTGHVFLAIQGEEKKAVFDQAAQGENREYPISLVLNHQGVNCHVFYAE” it was “soluble”; in that of “GMGDSAGLPPIYADKPIELAPAKIITSFPVNTFLENLASAPDGTIFVTNHEVGEIVSITPDGNQQIHATVEGKVSGLAFTSNGDLVATGWNADSIPVVSLVKSDGTVETLLTLPDAIFLNGITPLSDTQYLTADSYRGAIWLIDVVQPSGSIWLEHPMLARSNSESVFPAANGLKRFGNFLYVSNTEKMLLLRIPVDSTDKPGEPEIFVEQTNIDDFAFDVEGNLYGATHIYNSVVRIAPDRSTTIIAQAEQGVIGSTAVAFGQTEGDCTAIYVVTNGGMFLPPPTGVVPANVVRLEVGKPGYPLG”, “soluble”. Under “GMGNIYQITVEEKAEHQRTLSFEFSLHDDLFKLLEKVDGKMDMTPEQTQAFMVGLKLFGEVMMQQRKHPLFKEFSAPFRAFMMNLKKQ” stands “soluble”; under “GMIDFTKSKQYTLSIRLSTDGFSFSIYNPINDNSQSLFEKEVDTSLSLTANLKNVFHESDFLSYSYKRVNIMIASKRFTMIPLELFEEEQAELLFYHNHQKRENEIVMYNILKKNNVVIIFGIDKSTYTFLNEQYPEARFYSQSTPLIEYFSIKSRLGNSKKMYASVRKDAIDIYCFERGQLLLANSFECMQTEDRIYYLLYVWKQLEFNQERDELHLTGTLSDKETLMNELKKFILQVFIMNPANNIDMQALLTCE”, “soluble”; under “GMISPERLRVYRFFASLTDEQLKDIALISEEKSFPTGSVIFKENSKADNLMLLLEGGVELFYSNGGAGSAANSTVCSVVPGAIFGVSSLIKPYHYTSSARATKPVRVVDINGARLREMSENNQALGQVLMNNVAAAVLARLH”, “soluble”. Turning to “GMKSQWECFLQNLGVWEGSFSNFSPEGTLLNDTSSRLCLEGLNNNQTVRLTLSRSGKDDVIREFRSVGGGLLFFENGSFSEGLIQLGPFSEFGGELAFVHENRRLRLVQLFDRNGHLNGLTLIREHLAGTPVAERPLLQINDLLGEWRGQAVTIYRDLRPPDIYSTTLKIQLDDAGRLMQSTSFGERTITSTATIKGSIVLFDQDPEKQVQVLLLPDGASATSPLKVQLRQPLFLEAGWLIQSDLRQRMIRSYNDKGEWVSLTLVTEERV”, the “soluble on expression in E. coli” value is on record as “soluble”.

Source of the values: the DeepSol protein solubility set.
